This note sets out measurements from publication PMC9756947, “Structural basis of transcription regulation by CNC family transcription factor, Nrf2” (Nucleic Acids Research, 2022).

Data set [1] deals with T1, human Nrf2 fragment (residues 452–560) (human, UniProt Q16236 452-560).
T1 construct: His6 tag removed with HRV 3C protease; also called NFE2L2; Nuclear factor erythroid 2-like factor; source: E. coli BL21 (DE3), purified (phosphocellulose P11, HisTrap HP, HiTrap SP, Superdex 75); not shown: His6, N-terminal, cleaved
T1 sequence (looked up): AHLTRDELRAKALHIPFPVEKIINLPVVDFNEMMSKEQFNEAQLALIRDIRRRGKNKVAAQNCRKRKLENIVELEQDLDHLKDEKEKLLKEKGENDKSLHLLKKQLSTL
The experiment in a line: crystal structure; Nrf2, MafG and DNA (CsMBE1 or CsMBE2) mixed at a molar ratio of 1:1:1, 10 mg/ml in 33 mM DTT; two Nrf2–MafG–DNA complexes in the asymmetric unit. The settings on record: both partners purified.

Data set [2] deals with T2, longer human Nrf2 fragment (residues 182–560) (human, UniProt Q16236 182-560).
T2 construct: human Nrf2 (NFE2L2), residues 182-560; Used for EMSA; also called Nrf2 (182–560); wild-type Nrf2; not shown: His6, N-terminal, kept
T2 sequence (looked up): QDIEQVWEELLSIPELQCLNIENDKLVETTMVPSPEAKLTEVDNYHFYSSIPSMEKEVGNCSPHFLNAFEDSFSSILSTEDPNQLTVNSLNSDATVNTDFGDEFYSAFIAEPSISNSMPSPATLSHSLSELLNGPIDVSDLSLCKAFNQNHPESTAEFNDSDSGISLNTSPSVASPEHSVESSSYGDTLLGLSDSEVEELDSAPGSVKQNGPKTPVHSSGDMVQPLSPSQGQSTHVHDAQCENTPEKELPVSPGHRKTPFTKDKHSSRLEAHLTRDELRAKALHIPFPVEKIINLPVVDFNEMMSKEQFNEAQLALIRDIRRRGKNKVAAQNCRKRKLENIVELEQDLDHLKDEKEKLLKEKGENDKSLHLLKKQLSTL
The experiment in a line: native gel or EMSA; EMSA to determine KD for DNA: dimers mixed with 32P-end labeled CsMBE DNA probe (about 1.6 pM) in 20 mM Tris–HCl pH 7.2, 150 mM KCl, 10 mM DTT, BSA, Tween 20, Poly(dI-dC), Ficol; 30 min (Jun–Fos) or 16 h (Nrf2–MafG, MafG homodimer); Nrf2 and MafG mixed at 3:1; complexes seen on DNA. To be noted: both partners purified.

Data set [3] deals with the molecule itself. The description is as above.
In data set [4] the target is T3, human c-Fos fragment (residues 111–207) (human, UniProt P01100 111-207).
T3 construct: human c-Fos, residues 111-207; The tag is cleavable with HRV 3C protease, but no removal is described; source: E. coli BL21(DE3)-RIL, precipitate solubilized in 6 M guanidine-HCl, purified (HisTrap HP), dialyzed
Described as above. To be noted: both partners purified.

In data set [5] the target is T4, Nrf2 DNA-binding domain (CNC-bZIP);MafG (crystal construct) (Homo sapiens;Homo sapiens, UniProt Q16236;O15525 ;, |). The data set is described as follows: X-ray crystallography; 2.3 A; EMSA: 20 mM Tris-HCl pH 7.2, 150 mM KCl, 10 mM DTT, 8 mg/ml BSA, 0.005% Tween 20, 50 ng/ml poly(dI-dC), 2.5% Ficoll; probe ~1.6 pM; 16 h (30 min for Jun-Fos); competitive assay at 4 C; gel at 4 C. To be noted: protein: recombinant;recombinant; tags: N-terminal His6, removed by HRV 3C (GPHM left);none; copies: 1;1; 1-nt 5' overhang on each strand (15 bp).

Data set [6] concerns the target T4, Nrf2 DNA-binding domain (CNC-bZIP);MafG …. The data set is described as follows: X-ray crystallography; 2.6 A; EMSA: 20 mM Tris-HCl pH 7.2, 150 mM KCl, 10 mM DTT, 8 mg/ml BSA, 0.005% Tween 20, 50 ng/ml poly(dI-dC), 2.5% Ficoll; probe ~1.6 pM; 16 h (30 min for Jun-Fos); competitive assay at 4 C; gel at 4 C. The settings on record: protein: recombinant;recombinant; tags: N-terminal His6, removed by HRV 3C (GPHM left);none; copies: 1;1; 1-nt 5' overhang on each strand (15 bp). Background: In EMSA bound probe runs differently from free probe, usually more slowly.

In data set [7] the target is c-Jun fragment;c-Fos fragment (Homo sapiens;Homo sapiens, UniProt P05412;P01100 ;, |). The data set is described as follows: EMSA; heterodimer; 30 min; EMSA: 20 mM Tris-HCl pH 7.2, 150 mM KCl, 10 mM DTT, 8 mg/ml BSA, 0.005% Tween 20, 50 ng/ml poly(dI-dC), 2.5% Ficoll; probe ~1.6 pM; 16 h (30 min for Jun-Fos); competitive assay at 4 C; gel at 4 C. The settings on record: protein: recombinant;recombinant; tags: N-terminal His6;N-terminal His6; copies: 1;1; label: 32P 5' end; text says 30 bp).

The target in data set [8] is T5, Nrf2 long fragment, wild type;MafG (EMSA construct) (Homo sapiens;Homo sapiens, UniProt Q16236;O15525 ;, |). The data set is described as follows: EMSA; Nrf2:MafG 3:1; MafG concentration taken as heterodimer; 16 h; EMSA: 20 mM Tris-HCl pH 7.2, 150 mM KCl, 10 mM DTT, 8 mg/ml BSA, 0.005% Tween 20, 50 ng/ml poly(dI-dC), 2.5% Ficoll; probe ~1.6 pM; 16 h (30 min for Jun-Fos); competitive assay at 4 C; gel at 4 C. To be noted: protein: recombinant;recombinant; tags: N-terminal His6 (not removed);N-terminal His6, removed by HRV 3C (GPHM left); copies: 1;1; label: 32P 5' end; text says 30 bp).

Data set [9] addresses T5, Nrf2 long fragment, wild type;MafG …. The data set is described as follows: EMSA (competitive, vs MafG homodimer); EC50 of Nrf2 at 1 nM MafG; 4 C, 16 h; EMSA: 20 mM Tris-HCl pH 7.2, 150 mM KCl, 10 mM DTT, 8 mg/ml BSA, 0.005% Tween 20, 50 ng/ml poly(dI-dC), 2.5% Ficoll; probe ~1.6 pM; 16 h (30 min for Jun-Fos); competitive assay at 4 C; gel at 4 C. To be noted: protein: recombinant;recombinant; tags: N-terminal His6 (not removed);N-terminal His6, removed by HRV 3C (GPHM left); copies: 1;1; label: 32P 5' end; text says 30 bp).

Data set [10] addresses MafG (EMSA construct) (Homo sapiens, UniProt O15525). The experiment in a line: EMSA; homodimer; 16 h; EMSA: 20 mM Tris-HCl pH 7.2, 150 mM KCl, 10 mM DTT, 8 mg/ml BSA, 0.005% Tween 20, 50 ng/ml poly(dI-dC), 2.5% Ficoll; probe ~1.6 pM; 16 h (30 min for Jun-Fos); competitive assay at 4 C; gel at 4 C. The settings on record: protein: recombinant; tags: N-terminal His6, removed by HRV 3C (GPHM left); chain copies: 2; label: 32P 5' end; text says 30 bp).

As a reminder, the Kd is the equilibrium constant for the complex coming apart.

Chain of c-Jun fragment;c-Fos fragment (P05412 other isoform, or with tags, fused parts or gaps |, chain 1 of 2): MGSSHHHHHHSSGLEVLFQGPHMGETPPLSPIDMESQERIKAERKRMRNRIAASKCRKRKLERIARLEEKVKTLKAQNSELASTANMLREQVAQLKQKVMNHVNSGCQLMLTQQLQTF
Chain of c-Jun fragment;c-Fos fragment (P01100 other isoform, or with tags, fused parts or gaps |, chain 2 of 2): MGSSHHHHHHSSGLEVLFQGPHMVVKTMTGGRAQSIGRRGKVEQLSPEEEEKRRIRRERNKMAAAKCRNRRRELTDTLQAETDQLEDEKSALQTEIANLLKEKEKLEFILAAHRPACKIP
T3 sequence (P01100 111-207): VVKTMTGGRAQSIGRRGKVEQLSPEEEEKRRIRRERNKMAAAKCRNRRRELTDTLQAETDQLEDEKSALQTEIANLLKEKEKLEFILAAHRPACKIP

B1: human MafG (residues 21–123, without any tag) (domain or fragment, UniProt O15525 21-123, looked up)
chain: GTSLTDEELVTMSVRELNQHLRGLSKEEIVQLKQRRRTLKNRGYAASCRVKRVTQKEELEKQKAELQQEVEKLASENASMKLELDALRSKYEALQTFARTVAR
notes: human MafG, residues 21-123: EHR, basic region and leucine zipper; Construct used for crystallization; source: E. coli BL21 (DE3), pAR2156-MafG, plating method, purified (HiTrap Heparin, Superdex 75)
As for B1, the binding result in data set [1] is on record as “binds”.

B2: human MafG fragment (residues 21–123), His6 tag removed (domain or fragment, UniProt O15525 21-123, looked up)
chain: B1 chain
notes: human MafG, residues 21-123; Construct used for EMSA; also called MafG (21–123); source: E. coli BL21(DE3)-RIL, purified (phosphocellulose P11, HisTrap HP, Superdex 75); not shown: His6, N-terminal, cleaved
On to B2, for which the binding result in data set [2] and in data set [3] was “binds” each time.

B3: human c-Jun fragment (residues 237–331) (domain or fragment, UniProt P05412 237-331, looked up)
chain: GETPPLSPIDMESQERIKAERKRMRNRIAASKCRKRKLERIARLEEKVKTLKAQNSELASTANMLREQVAQLKQKVMNHVNSGCQLMLTQQLQTF
notes: human c-Jun, residues 237-331; source: E. coli, expressed and purified similarly to the c-Fos fragment
On to B3, for which the binding result in data set [4] is reported as “binds”.

B4: CsMBE1 (dsDNA)
DNA 1: CATGATGAGTCAGCAA
DNA 2: GTTGCTGACTCATCAT
Consider B4, for which the binding result in [5] was “binds”.

B5: CsMBE2 (dsDNA)
DNA 1: CACAGTGACTCAGCAG
DNA 2: GCTGCTGAGTCACTGT
B5: the binding result in data set [6] was “binds”.

B6: EMSA CsMBE probe (dsDNA)
DNA 1: CCGCAGTCACAGTGACTCAGCAGAATCTGA
DNA 2: CTCAGATTCTGCTGAGTCACTGTGACTGCG
On to B6, for which the results for the Kd in data set [7], in data set [8] and in data set [10] were 129000 pM, 530 pM and 690 pM, respectively. Further, the “apparent K (half saturation)” value in data set [9] was 2.1 nM.
